# Test results reported in the supplement of paper PMC11316812.
# ± gives the standard deviation of the averaged measurements.
# How the values were obtained:
# MCF7 = assay: percentage of EdU-negative (G0-arrested) nuclei per well, 72 h; higher = more G0 arrest; conditions: reference: sequence is the full UniProt precursor, the tested protein was the secreted form or ectodomain
# hTERT-HMEC = assay: as above; conditions: reference: sequence is the full UniProt precursor, the tested protein was the secreted form or ectodomain
# [1] = protein concentration 0.0199575 µM
# [2] = protein concentration 0.03125 µM
# [3] = protein concentration 0.199575 µM
# [4] = protein concentration 0.3125 µM
# [5] = protein concentration 0.0194286 µM
# [6] = protein concentration 0.194286 µM
# [7] = protein concentration 0.0225 µM
# [8] = protein concentration 0.03025 µM
# [9] = protein concentration 0.3025 µM
# [10] = protein concentration 0.0059525 µM
# [11] = protein concentration 0.059525 µM
# [12] = protein concentration 0.0174286 µM
# [13] = protein concentration 0.174286 µM
# [14] = protein concentration 0.00592 µM
# [15] = protein concentration 0.0592 µM
# [16] = protein concentration 0.0257143 µM
# [17] = protein concentration 0.257143 µM
# [18] = protein concentration 0.0140425 µM
# [19] = protein concentration 0.140425 µM
# 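Also: secreted proteins added to cultured cells, EdU pulse at the end, nuclei found by Hoechst imaging, EdU status from nuclear versus surrounding ring intensity ratio, PBS as neutral control.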
sequence,measurement,setting,value
MGTTARAALVLTYLAVASAASEGGFTATGQRQLRPEHFQEVGYAAPPSPPLSRSLPMDHPDSSQHGPPFEGQSQVQPPPSQEATPLQQEKLLPAQLPAEKEVGPPLPQEAVPLQKELPSLQHPNEQKEGTPAPFGDQSHPEPESWNAAQHCQQDRSQGGWGHRLDGFPPGRPSPDNLNQICLPNRQHVVYGPWNLPQSSYSHLTRQGETLNFLEIGYSRCCHCRSHTNRLECAKLVWEEAMSRFCEAEFSVKTRPHWCCTRQGEARFSCFQEEAPQPHYQLRACPSHQPDISSGLELPFPPGVPTLDNIKNICHLRRFRSVPRNLPATDPLQRELLALIQLEREFQRCCRQGNNHTCTWKAWEDTLDKYCDREYAVKTHHHLCCRHPPSPTRDECFARRAPYPNYDRDILTIDIGRVTPNLMGHLCGNQRVLTKHKHIPGLIHNMTARCCDLPFPEQACCAEEEKLTFINDLCGPRRNIWRDPALCCYLSPGDEQVNCFNINYLRNVALVSGDTENAKGQGEQGSTGGTNISSTSEPKEE,percentage of EdU-negative,MCF7; [1],23.4 ± 2%
same,percentage of EdU-negative,MCF7; [2],25.6 ± 1.1%
same,percentage of EdU-negative,MCF7; [3],25.7 ± 1.2%
same,percentage of EdU-negative,MCF7; [4],26 ± 1.7%
same,percentage of EdU-negative,hTERT-HMEC; [1],5.01 ± 0.46%
same,percentage of EdU-negative,hTERT-HMEC; [2],4.52 ± 0.66%
same,percentage of EdU-negative,hTERT-HMEC; [3],5.74 ± 0.78%
same,percentage of EdU-negative,hTERT-HMEC; [4],5.29 ± 0.63%
MGVAARPPALRHWFSHSIPLAIFALLLLYLSVRSLGARSGCGPRAQPCVPGETAPFQVRQESGTLEAPERKQPPCLGPRGMLGRMMRRFHASLKPEGDVGLSPYLAGWRALVEFLTPLGSVFAFATREAFTKVTDLEARVHGPDAEHYWSLVAMAAWERRAGLLEQPGAAPRDPTRSSGSRTLLLLHRALRWSQLCLHRVATGALGGPDAGVQCSDAYRAALGPHHPWLVRQTARLAFLAFPGRRRLLELACPGATEAEARAALVRAAGTLEDVYNRTQSLLAERGLLQLA [A6NH11],percentage of EdU-negative,MCF7; [5],23.4 ± 0.51%
same,percentage of EdU-negative,MCF7; [6],25.5 ± 2.7%
same,percentage of EdU-negative,hTERT-HMEC; [5],5.02 ± 1.8%
same,percentage of EdU-negative,hTERT-HMEC; [6],5.53 ± 0.54%
MGVCGYLFLPWKCLVVVSLRLLFLVPTGVPVRSGDATFPKAMDNVTVRQGESATLRCTIDDRVTRVAWLNRSTILYAGNDKWSIDPRVIILVNTPTQYSIMIQNVDVYDEGPYTCSVQTDNHPKTSRVHLIVQVPPQIMNISSDITVNEGSSVTLLCLAIGRPEPTVTWRHLSVKEGQGFVSEDEYLEISDIKRDQSGEYECSALNDVAAPDVRKVKITVNYPPYISKAKNTGVSVGQKGILSCEASAVPMAEFQWFKEETRLATGLDGMRIENKGRMSTLTFFNVSEKDYGNYTCVATNKLGNTNASITLYGPGAVIDGVNSASRALACLWLSGTLLAHFFIKF,percentage of EdU-negative,MCF7; [7],23.9 ± 0.79%
same,percentage of EdU-negative,MCF7; protein concentration 0.225 µM,23.8 ± 1.2%
same,percentage of EdU-negative,hTERT-HMEC; [7],4.81 ± 0.74%
same,percentage of EdU-negative,hTERT-HMEC; protein concentration 0.225 µM,5.39 ± 1.6%
MGVCGYLFLPWKCLVVVSLRLLFLVPTGVPVRSGDATFPKAMDNVTVRQGESATLRCTIDNRVTRVAWLNRSTILYAGNDKWCLDPRVVLLSNTQTQYSIEIQNVDVYDEGPYTCSVQTDNHPKTSRVHLIVQVSPKIVEISSDISINEGNNISLTCIATGRPEPTVTWRHISPKAVGFVSEDEYLEIQGITREQSGDYECSASNDVAAPVVRRVKVTVNYPPYISEAKGTGVPVGQKGTLQCEASAVPSAEFQWYKDDKRLIEGKKGVKVENRPFLSKLIFFNVSEHDYGNYTCVASNKLGHTNASIMLFGPGAVSEVSNGTSRRAGCVWLLPLLVLHLLLKF [Q9P121],percentage of EdU-negative,MCF7; [8],24.73 ± 0.092%
same,percentage of EdU-negative,MCF7; [9],28.9 ± 1.9%
same,percentage of EdU-negative,hTERT-HMEC; [8],5.01 ± 0.68%
same,percentage of EdU-negative,hTERT-HMEC; [9],6.84 ± 0.93%
MGVPFFSSLRCMVDLGPCWAGGLTAEMKLLLALAGLLAILATPQPSEGAAPAVLGEVDTSLVLSSMEEAKQLVDKAYKERRESIKQRLRSGSASPMELLSYFKQPVAATRTAVRAADYLHVALDLLERKLRSLWRRPFNVTDVLTPAQLNVLSKSSGCAYQDVGVTCPEQDKYRTITGMCNNRRSPTLGASNRAFVRWLPAEYEDGFSLPYGWTPGVKRNGFPVALARAVSNEIVRFPTDQLTPDQERSLMFMQWGQLLDHDLDFTPEPAARASFVTGVNCETSCVQQPPCFPLKIPPNDPRIKNQADCIPFFRSCPACPGSNITIRNQINALTSFVDASMVYGSEEPLARNLRNMSNQLGLLAVNQRFQDNGRALLPFDNLHDDPCLLTNRSARIPCFLAGDTRSSEMPELTSMHTLLLREHNRLATELKSLNPRWDGERLYQEARKIVGAMVQIITYRDYLPLVLGPTAMRKYLPTYRSYNDSVDPRIANVFTNAFRYGHTLIQPFMFRLDNRYQPMEPNPRVPLSRVFFASWRVVLEGGIDPILRGLMATPAKLNRQNQIAVDEIRERLFEQVMRIGLDLPALNMQRSRDHGLPGYNAWRRFCGLPQPETVGQLGTVLRNLKLARKLMEQYGTPNNIDIWMGGVSEPLKRKGRVGPLLACIIGTQFRKLRDGDRFWWENEGVFSMQQRQALAQISLPRIICDNTGITTVSKNNIFMSNSYPRDFVNCSTLPALNLASWREAS,percentage of EdU-negative,MCF7; [10],24.8 ± 1.3%
same,percentage of EdU-negative,MCF7; [11],26.8 ± 0.65%
same,percentage of EdU-negative,hTERT-HMEC; [10],5.02 ± 0.23%
same,percentage of EdU-negative,hTERT-HMEC; [11],4.74 ± 0.28%
MGWLPLLLLLTQCLGVPGQRSPLNDFQVLRGTELQHLLHAVVPGPWQEDVADAEECAGRCGPLMDCRAFHYNVSSHGCQLLPWTQHSPHTRLRRSGRCDLFQKKDYVRTCIMNNGVGYRGTMATTVGGLPCQAWSHKFPNDHKYTPTLRNGLEENFCRNPDGDPGGPWCYTTDPAVRFQSCGIKSCREAACVWCNGEEYRGAVDRTESGRECQRWDLQHPHQHPFEPGKFLDQGLDDNYCRNPDGSERPWCYTTDPQIEREFCDLPRCGSEAQPRQEATTVSCFRGKGEGYRGTANTTTAGVPCQRWDAQIPHQHRFTPEKYACKDLRENFCRNPDGSEAPWCFTLRPGMRAAFCYQIRRCTDDVRPQDCYHGAGEQYRGTVSKTRKGVQCQRWSAETPHKPQFTFTSEPHAQLEENFCRNPDGDSHGPWCYTMDPRTPFDYCALRRCADDQPPSILDPPDQVQFEKCGKRVDRLDQRRSKLRVVGGHPGNSPWTVSLRNRQGQHFCGGSLVKEQWILTARQCFSSCHMPLTGYEVWLGTLFQNPQHGEPSLQRVPVAKMVCGPSGSQLVLLKLERSVTLNQRVALICLPPEWYVVPPGTKCEIAGWGETKGTGNDTVLNVALLNVISNQECNIKHRGRVRESEMCTEGLLAPVGACEGDYGGPLACFTHNCWVLEGIIIPNRVCARSRWPAVFTRVSVFVDWIHKVMRLG [G3XAK1],percentage of EdU-negative,MCF7; [12],22.6 ± 1.9%
same,percentage of EdU-negative,MCF7; [13],27.79 ± 0.11%
same,percentage of EdU-negative,hTERT-HMEC; [12],4.79 ± 0.57%
same,percentage of EdU-negative,hTERT-HMEC; [13],5.55 ± 0.076%
MHLIDYLLLLLVGLLALSHGQLHVEHDGESCSNSSHQQILETGEGSPSLKIAPANADFAFRFYYLIASETPGKNIFFSPLSISAAYAMLSLGACSHSRSQILEGLGFNLTELSESDVHRGFQHLLHTLNLPGHGLETRVGSALFLSHNLKFLAKFLNDTMAVYEAKLFHTNFYDTVGTIQLINDHVKKETRGKIVDLVSELKKDVLMVLVNYIYFKALWEKPFISSRTTPKDFYVDENTTVRVPMMLQDQEHHWYLHDRYLPCSVLRMDYKGDATVFFILPNQGKMREIEEVLTPEMLMRWNNLLRKRNFYKKLELHLPKFSISGSYVLDQILPRLGFTDLFSKWADLSGITKQQKLEASKSFHKATLDVDEAGTEAAAATSFAIKFFSAQTNRHILRFNRPFLVVIFSTSTQSVLFLGKVVDPTKP,percentage of EdU-negative,MCF7; protein concentration 0.022 µM,25 ± 1.3%
same,percentage of EdU-negative,MCF7; protein concentration 0.22 µM,28.9 ± 0.99%
same,percentage of EdU-negative,hTERT-HMEC; protein concentration 0.022 µM,4.571 ± 0.028%
same,percentage of EdU-negative,hTERT-HMEC; protein concentration 0.22 µM,4.09 ± 0.62%
MHLLGFFSVACSLLAAALLPGPREAPAAAAAFESGLDLSDAEPDAGEATAYASKDLEEQLRSVSSVDELMTVLYPEYWKMYKCQLRKGGWQHNREQANLNSRTEETIKFAAAHYNTEILKSIDNEWRKTQCMPREVCIDVGKEFGVATNTFFKPPCVSVYRCGGCCNSEGLQCMNTSTSYLSKTLFEITVPLSQGPKPVTISFANHTSCRCMSKLDVYRQVHSIIRRSLPATLPQCQAANKTCPTNYMWNNHICRCLAQEDFMFSSDAGDDSTDGFHDICGPNKELDEETCQCVCRAGLRPASCGPHKELDRNSCQCVCKNKLFPSQCGANREFDENTCQCVCKRTCPRNQPLNPGKCACECTESPQKCLLKGKKFHHQTCSCYRRPCTNRQKACEPGFSYSEEVCRCVPSYWKRPQMS,percentage of EdU-negative,MCF7; [14],25.4 ± 0.75%
same,percentage of EdU-negative,MCF7; [15],25.31 ± 0.24%
same,percentage of EdU-negative,hTERT-HMEC; [14],5.07 ± 0.77%
same,percentage of EdU-negative,hTERT-HMEC; [15],5.93 ± 0.55%
MHLLLFQLLVLLPLGKTTRHQDGRQNQSSLSPVLLPRNQRELPTGNHEEAEEKPDLFVAVPHLVATSPAGEGQRQREKMLSRFGRFWKKPEREMHPSRDSDSEPFPPGTQSLIQPIDGMKMEKSPLREEAKKFWHHFMFRKTPASQGVILPIKSHEVHWETCRTVPFSQTITHEGCEKVVVQNNLCFGKCGSVHFPGAAQHSHTSCSHCLPAKFTTMHLPLNCTELSSVIKVVMLVEECQCKVKTEHEDGHILHAGSQDSFIPGVSA,percentage of EdU-negative,MCF7; [16],23.4 ± 3.4%
same,percentage of EdU-negative,MCF7; [17],24.2 ± 0.59%
same,percentage of EdU-negative,hTERT-HMEC; [16],4.67 ± 0.26%
same,percentage of EdU-negative,hTERT-HMEC; [17],5.44 ± 1.3%
MHLRLISWLFIILNFMEYIGSQNASRGRRQRRMHPNVSQGCQGGCATCSDYNGCLSCKPRLFFALERIGMKQIGVCLSSCPSGYYGTRYPDINKCTKCKADCDTCFNKNFCTKCKSGFYLHLGKCLDNCPEGLEANNHTMECVSIVHCEVSEWNPWSPCTKKGKTCGFKRGTETRVREIIQHPSAKGNLCPPTNETRKCTVQRKKCQKGERGKKGRERKRKKPNKGESKEAIPDSKSLESSKEIPEQRENKQQQKKRKVQDKQKSVSVSTVH [Q9BXY4],percentage of EdU-negative,MCF7; [18],23.8 ± 0.26%
same,percentage of EdU-negative,MCF7; [19],24.3 ± 1.6%
same,percentage of EdU-negative,hTERT-HMEC; [18],4.43 ± 0.65%
same,percentage of EdU-negative,hTERT-HMEC; [19],5.27 ± 0.29%
